In patent US20150165065A1 (AVIDBIOTICS, published 2015):
Where two headings read alike, the source gives them in different places.

Columns and labels:
Experiment in all cases: phage ELISA, coated integrin, anti-M13-HRP
[1] = target: T1, integrin αVβ5 (UniProt P06756 31-992; P18084 24-719)
T1 construct: Coated on the ELISA plate

[2] = target: T2, integrin αVβ3 (UniProt P06756 31-992; P05106 27-718)
T2 construct: Coated on the ELISA plate

[3] = target: T1, integrin αVβ5; remark: listed apart in the source
Description: (§1) The phage vectors were independently transformed into NEBαF′tet competent E. coli cells. Phages produced by the transformed cells were tittered and their concentrations adjusted by dilution to 10¹³ per ml. The ability of the soluble MICA molecules in each of the phage preparations was assayed by an ELISA using the intended target proteins, integrin αVβ3 or αVβ5, as capture agents on the ELISA plate. After the respective integrins were adhered to the bottoms of the wells of the ELISA plate, the wells were washed and blocked, as well known in the field. Each sample (100 μl) of phage preparation was added to wells containing αVβ3 or αVβ5, incubated and washed. The phages captured by the integrins were detected by HRP-conjugated antibody to the M13 phage coat developed with Ultra TMB-ELISA substrate and the optical densities read.

[4] = target: T1, integrin αVβ5; remark: listed apart in the source
Description: (§2) The ELISA assays of the integrin target-binding of M13 phages displaying α3 domains with binding peptide inserts grafted into more than one loop were performed as follows. After the respective integrins were adhered to the bottoms of the wells of the ELISA plate, the wells were washed and blocked. Each sample (100 μl) of phage preparation was added to wells containing αVβ3 or αVβ5, incubated and washed. The phages captured by the integrins were detected by HRP-conjugated antibody to the M13 phage coat developed with Ultra TMB-ELISA substrate and the optical densities read.

[5] = target: T2, integrin αVβ3; remark: listed apart in the source
Description: as §2

[6] = target: T2, integrin αVβ3; remark: listed apart in the source
Description: as §1

T1 sequence (P06756 31-992, chain 1 of 2): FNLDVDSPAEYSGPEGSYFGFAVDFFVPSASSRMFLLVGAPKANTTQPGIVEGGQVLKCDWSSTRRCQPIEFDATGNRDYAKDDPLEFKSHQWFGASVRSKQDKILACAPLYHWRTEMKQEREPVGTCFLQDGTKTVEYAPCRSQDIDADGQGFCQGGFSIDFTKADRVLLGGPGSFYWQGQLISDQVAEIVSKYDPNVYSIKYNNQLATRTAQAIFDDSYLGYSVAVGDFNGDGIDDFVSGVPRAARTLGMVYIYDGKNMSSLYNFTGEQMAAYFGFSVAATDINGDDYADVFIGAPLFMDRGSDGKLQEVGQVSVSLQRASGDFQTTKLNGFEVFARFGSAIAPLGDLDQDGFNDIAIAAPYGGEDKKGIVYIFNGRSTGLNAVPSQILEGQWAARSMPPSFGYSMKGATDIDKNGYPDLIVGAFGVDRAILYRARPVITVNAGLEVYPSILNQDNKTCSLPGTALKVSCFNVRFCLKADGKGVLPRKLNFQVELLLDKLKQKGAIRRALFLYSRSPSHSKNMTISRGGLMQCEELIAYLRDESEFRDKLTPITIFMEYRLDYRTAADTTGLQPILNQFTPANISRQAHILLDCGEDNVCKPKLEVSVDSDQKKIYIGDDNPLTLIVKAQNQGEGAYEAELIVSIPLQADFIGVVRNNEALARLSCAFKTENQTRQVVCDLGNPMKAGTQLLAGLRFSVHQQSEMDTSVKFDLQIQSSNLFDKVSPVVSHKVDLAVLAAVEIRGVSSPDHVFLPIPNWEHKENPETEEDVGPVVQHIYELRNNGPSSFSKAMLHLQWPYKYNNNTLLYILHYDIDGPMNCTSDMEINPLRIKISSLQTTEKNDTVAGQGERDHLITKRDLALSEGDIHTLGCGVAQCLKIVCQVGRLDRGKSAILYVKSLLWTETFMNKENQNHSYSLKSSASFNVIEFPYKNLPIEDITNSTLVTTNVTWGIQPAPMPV
T1 sequence (P18084 24-719, chain 2 of 2): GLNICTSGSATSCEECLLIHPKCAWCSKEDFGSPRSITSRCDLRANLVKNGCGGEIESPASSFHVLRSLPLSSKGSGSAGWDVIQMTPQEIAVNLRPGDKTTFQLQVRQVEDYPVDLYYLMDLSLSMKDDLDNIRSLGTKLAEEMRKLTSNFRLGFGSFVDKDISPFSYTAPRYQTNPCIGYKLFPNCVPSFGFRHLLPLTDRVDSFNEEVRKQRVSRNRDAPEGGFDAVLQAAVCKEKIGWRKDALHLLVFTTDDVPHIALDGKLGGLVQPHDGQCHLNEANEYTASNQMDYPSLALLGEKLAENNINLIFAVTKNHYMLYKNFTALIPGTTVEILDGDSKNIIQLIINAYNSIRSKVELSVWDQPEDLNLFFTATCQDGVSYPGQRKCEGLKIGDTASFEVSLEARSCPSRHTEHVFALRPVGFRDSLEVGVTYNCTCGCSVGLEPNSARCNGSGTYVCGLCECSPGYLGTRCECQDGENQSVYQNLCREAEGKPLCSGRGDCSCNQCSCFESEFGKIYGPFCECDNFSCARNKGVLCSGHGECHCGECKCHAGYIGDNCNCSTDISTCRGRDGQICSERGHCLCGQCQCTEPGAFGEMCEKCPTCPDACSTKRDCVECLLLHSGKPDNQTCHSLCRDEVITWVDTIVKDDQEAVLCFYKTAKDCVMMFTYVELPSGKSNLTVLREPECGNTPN
T2 sequence (P06756 31-992, chain 1 of 2): as the sequence (P06756 31-992, chain 1 of 2) above
T2 sequence (P05106 27-718, chain 2 of 2): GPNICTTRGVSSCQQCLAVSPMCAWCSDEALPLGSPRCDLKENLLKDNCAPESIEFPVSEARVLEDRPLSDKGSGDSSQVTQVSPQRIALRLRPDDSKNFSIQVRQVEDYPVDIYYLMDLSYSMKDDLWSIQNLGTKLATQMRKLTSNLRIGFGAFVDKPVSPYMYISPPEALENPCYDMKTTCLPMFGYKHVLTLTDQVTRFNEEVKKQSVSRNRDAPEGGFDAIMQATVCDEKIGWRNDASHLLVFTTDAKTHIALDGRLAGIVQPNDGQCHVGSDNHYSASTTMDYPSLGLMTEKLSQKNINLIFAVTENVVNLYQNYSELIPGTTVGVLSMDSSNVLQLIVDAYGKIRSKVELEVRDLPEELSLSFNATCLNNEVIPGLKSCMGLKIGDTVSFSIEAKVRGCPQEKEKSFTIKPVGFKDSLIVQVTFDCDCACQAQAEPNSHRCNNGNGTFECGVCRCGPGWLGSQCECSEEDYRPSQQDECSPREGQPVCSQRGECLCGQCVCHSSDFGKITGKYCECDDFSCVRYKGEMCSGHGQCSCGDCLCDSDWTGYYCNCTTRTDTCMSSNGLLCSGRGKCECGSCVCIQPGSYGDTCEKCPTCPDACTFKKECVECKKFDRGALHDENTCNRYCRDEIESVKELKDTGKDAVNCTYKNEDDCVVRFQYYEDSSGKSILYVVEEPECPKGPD

B1: M13 phage pKK112 displaying MICA α3 domain with tight loop 1 insert T-AMY (loop 1 from tendamistat) (designed binder, not shown: large carriers)
chain: TVPPMVNYQSWRYSQCRASGFYPWNITLSWRQDGVSLSHDTQQWGDVLPDGNGTYQTWVATRICQGEEQRFTCYMEHSGNHSTHPVPSGK
- αvβ5 signal [1]: 0.515 OD
- αvβ3 signal [2]: 0.46 OD

B2: M13 phage pKK109 displaying MICA α3 domain with tight loop 1 insert T-3.3 (designed binder, not shown: large carriers)
chain: TVPPMVNRVPRGDSDLTCRASGFYPWNITLSWRQDGVSLSHDTQQWGDVLPDGNGTYQTWVATRICQGEEQRFTCYMEHSGNHSTHPVPSGK
- αvβ5 signal [1]: 0.167 OD
- αvβ3 signal [2]: 0.23 OD

B3: M13 phage pKK91 displaying MICA α3 domain with loop 3 insert His10sp (designed binder)
chain: TVPPMVNVTRSEASEGNITVTCRASGFYPWNITLSWRQDGVSLSHDTQQWGDVLPDGNGTYQTWVATRISGGSGGGSHHHHHHHHHHSGGSGGGCYMEHSGNHSTHPVPSGK
notes: also called 3-His10; not shown: C-terminal portion of M13 gene III protein, fused at codon position 198
- αvβ3 signal [2]: 0.303 OD
- αvβ5 signal [3]: 0.078 OD

B4: M13 phage pKK100 displaying MICA α3 domain with loop 1 insert 3.2sp (designed binder, not shown: large carriers)
chain: TVPPMVNVTSGGSGGGSTSRGDHPRTQSGGSGGGVTCRASGFYPWNITLSWRQDGVSLSHDTQQWGDVLPDGNGTYQTWVATRICQGEEQRFTCYMEHSGNHSTHPVPSGK
- αvβ5 signal [1]: 0.186 OD
- αvβ3 signal [2]: 0.201 OD

B5: M13 phage pKK102 displaying MICA α3 domain with loop 1 insert 5.1sp (designed binder)
chain: TVPPMVNVTSGGSGGGSVTRGDTFTQSSGGSGGGVTCRASGFYPWNITLSWRQDGVSLSHDTQQWGDVLPDGNGTYQTWVATRICQGEEQRFTCYMEHSGNHSTHPVPSGK
notes: also called 1-5.1sp; not shown: C-terminal portion of M13 gene III protein, fused at codon position 198
- αvβ5 signal [4]: 1.5 OD
- αvβ3 signal [5]: 1.45 OD
- αvβ5 signal [3]: 0.771 OD
- αvβ3 signal [6]: 1.02 OD

B6: M13 phage pKK103 displaying MICA α3 domain with loop 1 insert 5.3sp (designed binder)
chain: TVPPMVNVTSGGSGGGSHLARGDDLTYSGGSGGGVTCRASGFYPWNITLSWRQDGVSLSHDTQQWGDVLPDGNGTYQTWVATRICQGEEQRFTCYMEHSGNHSTHPVPSGK
notes: also called 1-5.3sp; not shown: C-terminal portion of M13 gene III protein, fused at codon position 198
- αvβ5 signal [4]: 0.814 OD
- αvβ3 signal [5]: 0.587 OD
- αvβ5 signal [3]: 0.491 OD
- αvβ3 signal [6]: 0.688 OD
